± gives the standard deviation of the averaged measurements.
test system: ATP; experiment: switch fluorescence ratio, 500 uM ATP over buffer (Cy3 cluster intensity, sum of 5 cycles each) (fold (ratio)); higher = stronger signal-on switching upon ATP binding; sequences stand for … in TCGTCGGCAGCGTCAGATGTGTATAAGAGACAGTTTTTTTTTTTTTTTTTTTTTTTTT…TC; conditions: aptamer strand: ATP DNA aptamer (quencher-CACCTGGGGGAGTATTGCGGAGGAAGG + anchor), 100 nM annealed; ATP concentration: 500 uM
Method in brief: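 The fluorescence ratio divides summed target-cycle Cy3 intensity by summed buffer-cycle Cy3 intensity for each cluster and is averaged per switch-domain sequence. Cy3-labelled switching-strand clusters on a modified Illumina MiSeq flow-cell were annealed to 100 nM quencher-labelled ATP aptamer, then imaged in selection buffer and again after 15 min with 500 uM ATP at 22 °C. Five such cycles were run, with NaOH stripping and re-annealing between them, and clusters outside 100-1000 RFU were excluded.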
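Note: ATP exposure 15 min at 22 °C before imaging.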

Row | Sequence | switch fluorescence ratio
1 | TAATTTATCG | 1.04 ± 0.038
2 | TAATTTATTT | 1.03 ± 0.029
3 | TAATTTCCGG | 0.994 ± 0.029
4 | TAATTTGAAA | 1.03 ± 0.07
5 | TAATTTGGTG | 1.043 ± 0.0083
6 | TAATTTGTTT | 1.03 ± 0.025
7 | TAATTTTCGT | 1.02 ± 0.03
8 | TAATTTTGCG | 1 ± 0.015
9 | TAATTTTGGG | 0.999 ± 0.047
10 | TAATTTTTGG | 0.992 ± 0.023
11 | TAATTTTTTA | 0.976 ± 0.03
12 | TACAAAAAAT | 1.03 ± 0.047
13 | TACAAAAGGT | 1.07 ± 0.094
14 | TACAAGGGTG | 1.1 ± 0.03
15 | TACAAGTCGT | 0.98 ± 0.012
16 | TACACATTTT | 1.07 ± 0.026
17 | TACACCCTTC | 1.183 ± 0.011
18 | TACACTGGGT | 0.999 ± 0.022
19 | TACACTTGTA | 1.03 ± 0.057
20 | TACAGAATGA | 1.003 ± 0.0041
21 | TACAGACTGT | 1.04 ± 0.021
22 | TACAGAGGG | 0.966 ± 0.06
23 | TACAGCAGGG | 1.04 ± 0.012
24 | TACAGCAGTG | 1.02 ± 0.023
25 | TACAGCTTTT | 1.01 ± 0.031

Row | Sequence | switch fluorescence ratio
26 | TACAGGGGTC | 1.06 ± 0.019
27 | TACAGGTATC | 0.9796 ± 0.0048
28 | TACAGGTTTC | 1 ± 0.023
29 | TACAGTCTGG | 1.007 ± 0.0066
30 | TACAGTGAGC | 1.026 ± 0.0019
31 | TACATCGTCC | 1.05 ± 0.024
32 | TACATGAGTA | 1.03 ± 0.023
33 | TACATGCTGC | 1.03 ± 0.022
34 | TACATGTCGT | 0.996 ± 0.018
35 | TACATTATAG | 1.01 ± 0.036
36 | TACATTGTGC | 1.01 ± 0.015
37 | TACATTTAGG | 0.9964 ± 0.0092
38 | TACCAGCATT | 1.1 ± 0.051
39 | TACCAGGCGG | 1.04 ± 0.037
40 | TACCAGTGAT | 1 ± 0.018
41 | TACCATCTTG | 0.997 ± 0.037
42 | TACCATGAAT | 1.01 ± 0.045
43 | TACCATGGTA | 0.987 ± 0.035
44 | TACCCTTGCC | 1.22 ± 0.25
45 | TACCCTTGGG | 0.9937 ± 0.0072
46 | TACCCTTTTT | 1.01 ± 0.054
47 | TACCGAAGGG | 0.989 ± 0.028
48 | TACCGGGGGT | 1.63 ± 0.83
49 | TACCGTAAAC | 1.8 ± 0.7
50 | TACCGTGTCC | 1.11 ± 0.06

Row | Sequence | switch fluorescence ratio
51 | TACCGTTTTT | 1.01 ± 0.045
52 | TACCTAGTGC | 1.035 ± 0.0016
53 | TACCTGCGAA | 2.07 ± 1.3
54 | TACGAGACGG | 1.095 ± 0.0059
55 | TACGAGCTGG | 0.995 ± 0.01
56 | TACGAGTTAA | 0.97 ± 0.015
57 | TACGAGTTTT | 0.996 ± 0.01
58 | TACGATATAC | 3.09 ± 0.34
59 | TACGATGCGG | 1.07 ± 0.038
60 | TACGATGTGC | 1.0053 ± 0.00075
61 | TACGCAGAAT | 3.38 ± 3.2
62 | TACGCGGGGG | 1.019 ± 0.0098
63 | TACGCGGTTG | 1.07 ± 0.044
64 | TACGCGTGGG | 1.004 ± 0.0084
65 | TACGGAACGG | 1.07 ± 0.029
66 | TACGGAGATT | 1.01 ± 0.035
67 | TACGGATACT | 1.27 ± 0.026
68 | TACGGATTGT | 0.988 ± 0.027
69 | TACGGGAGGG | 1.07 ± 0.022
70 | TACGGGCGTC | 1 ± 0.028
71 | TACGGGGCGA | 1.07 ± 0.036
72 | TACGGGGGAC | 1.07 ± 0.047
73 | TACGGGGGTA | 1.02 ± 0.036
74 | TACGGGGGTG | 1.01 ± 0.042
75 | TACGGGGTCA | 0.971 ± 0.03

Row | Sequence | switch fluorescence ratio
76 | TACGGTAGCC | 1.043 ± 0.0061
77 | TACGGTCCTG | 0.99156 ± 0.00092
78 | TACGTAACTC | 1.28 ± 0.028
79 | TACGTATGAA | 1.17 ± 0.014
80 | TACGTATTTA | 1.13 ± 0.0012
81 | TACGTATTTT | 1.023 ± 0.0035
82 | TACGTCACGA | 1.42 ± 0.19
83 | TACGTCCCGG | 1.08 ± 0.014
84 | TACGTCTTGG | 1.04 ± 0.033
85 | TACGTGCTTG | 0.989 ± 0.03
86 | TACGTGGGTG | 1.05 ± 0.02
87 | TACGTGTAGC | 1.01 ± 0.011
88 | TACGTGTTTG | 1.01 ± 0.033
89 | TACTACTTAT | 1.04 ± 0.053
90 | TACTAGGCG | 1.014 ± 0.0083
91 | TACTAGTTGG | 0.997 ± 0.011
92 | TACTCATGGG | 1.01 ± 0.035
93 | TACTCGAGGG | 1.08 ± 0.031
94 | TACTCGGATT | 0.996 ± 0.015
95 | TACTCGGGAA | 3.05 ± 2
96 | TACTGACTTG | 0.989 ± 0.014
97 | TACTGGCCGG | 1.03 ± 0.029
98 | TACTGGGGTT | 0.981 ± 0.031
99 | TACTGGTGAC | 1.06 ± 0.012
100 | TACTGGTTGG | 1 ± 0.021

Row | Sequence | switch fluorescence ratio
101 | TACTGTAGGG | 1.12 ± 0.029
102 | TACTGTGAGC | 1.016 ± 0.0076
103 | TACTGTGGGG | 1.009 ± 0.0094
104 | TACTTAGTTT | 1.01 ± 0.077
105 | TACTTATGGA | 0.984 ± 0.043
106 | TACTTCATTC | 1.037 ± 0.0095
107 | TACTTGAGTT | 1.05 ± 0.012
108 | TACTTGTGTT | 1.02 ± 0.046
109 | TACTTTGGGG | 0.989 ± 0.022
110 | TACTTTTCGT | 0.995 ± 0.024
111 | TACTTTTGCT | 0.9669 ± 0.0014
112 | TAGAAAAAGA | 0.988 ± 0.016
113 | TAGAAAAGAG | 1.01 ± 0.024
114 | TAGAAAAGGC | 1.15 ± 0.21
115 | TAGAAACTTT | 1.1 ± 0.14
116 | TAGAAATGCG | 1.038 ± 0.0038
117 | TAGAACCGGG | 1.09 ± 0.024
118 | TAGAAGGGGT | 0.969 ± 0.047
119 | TAGAAGGGTT | 1 ± 0.024
120 | TAGAATCCGG | 0.979 ± 0.011
121 | TAGAATCGGG | 0.9758 ± 0.0078
122 | TAGACAGTTT | 0.993 ± 0.023
123 | TAGACCAAAA | 1.02 ± 0.017
124 | TAGACCGGAG | 1.04 ± 0.014
125 | TAGACGGAAG | 1.052 ± 0.00072

Row | Sequence | switch fluorescence ratio
126 | TAGACGGGCA | 1.01 ± 0.015
127 | TAGAGAAGTT | 1 ± 0.015
128 | TAGAGAATTT | 0.984 ± 0.02
129 | TAGAGATCTA | 1.011 ± 0.0016
130 | TAGAGCATTG | 1 ± 0.044
131 | TAGAGGCAGG | 0.985 ± 0.018
132 | TAGAGGGCGG | 1.03 ± 0.012
133 | TAGAGGGGCG | 0.946 ± 0.065
134 | TAGAGTAGCT | 1 ± 0.035
135 | TAGAGTGGGC | 0.991 ± 0.013
136 | TAGATAATGG | 1.02 ± 0.014
137 | TAGATAGGGA | 1.01 ± 0.024
138 | TAGATCAATG | 1.02 ± 0.024
139 | TAGATCGCTG | 0.931 ± 0.028
140 | TAGATGTTGA | 0.973 ± 0.036
141 | TAGATTCTGA | 1.01 ± 0.032
142 | TAGATTGACC | 1.04 ± 0.033
143 | TAGATTGGAG | 0.987 ± 0.0072
144 | TAGATTGGTG | 0.991 ± 0.04
145 | TAGCAACGCA | 1.03 ± 0.015
146 | TAGCAACGGG | 1.03 ± 0.015
147 | TAGCAATTAG | 2.45 ± 0.031
148 | TAGCACCATT | 1.1 ± 0.072
149 | TAGCAGACGG | 1.03 ± 0.015
150 | TAGCAGGGTG | 1.14 ± 0.019

Row | Sequence | switch fluorescence ratio
151 | TAGCATTGGT | 0.9903 ± 0.0016
152 | TAGCCGGAGG | 0.986 ± 0.018
153 | TAGCCGGGGT | 1.04 ± 0.054
154 | TAGCCGGTTC | 1.026 ± 0.01
155 | TAGCCTGGAC | 1.1 ± 0.031
156 | TAGCCTTAGA | 0.983 ± 0.02
157 | TAGCGAAAAA | 0.992 ± 0.016
158 | TAGCGCTCTA | 0.999 ± 0.024
159 | TAGCGCTGGT | 1.01 ± 0.02
160 | TAGCGGCGGC | 1.01 ± 0.016
161 | TAGCGGGTTT | 1.03 ± 0.023
162 | TAGCGGTGTC | 1.07 ± 0.021
163 | TAGCGGTTGG | 1.022 ± 0.0053
164 | TAGCGTTTCC | 1.097 ± 0.0047
165 | TAGCTCATTA | 0.979 ± 0.019
166 | TAGCTGAAGT | 0.975 ± 0.038
167 | TAGCTGTACA | 1.01 ± 0.015
168 | TAGCTTTCGA | 1.06 ± 0.031
169 | TAGGAAGTCG | 0.995 ± 0.047
170 | TAGGACCTGT | 0.9849 ± 0.0073
171 | TAGGACGGTG | 0.992 ± 0.034
172 | TAGGACTCTC | 1.01 ± 0.02
173 | TAGGAGAAGT | 0.991 ± 0.042
174 | TAGGAGAGCC | 1.03 ± 0.017
175 | TAGGAGATGA | 1 ± 0.042

Row | Sequence | switch fluorescence ratio
176 | TAGGAGGCTC | 1.03 ± 0.014
177 | TAGGAGGGA | 1 ± 0.024
178 | TAGGAGTGCT | 0.9896 ± 0.0066
179 | TAGGCAGATG | 1.01 ± 0.02
180 | TAGGCAGGCG | 1.01 ± 0.1
181 | TAGGCAGGGC | 1.04 ± 0.11
182 | TAGGCATTTG | 1.006 ± 0.0069
183 | TAGGCCAAGT | 0.989 ± 0.026
184 | TAGGCCCTTG | 1.01 ± 0.043
185 | TAGGCCGTTT | 1 ± 0.084
186 | TAGGCGGCAC | 1.03 ± 0.046
187 | TAGGCGGGGG | 1 ± 0.02
188 | TAGGCTACGG | 1.03 ± 0.014
189 | TAGGCTGATA | 1.01 ± 0.029
190 | TAGGCTGGGC | 0.9673 ± 0.0041
191 | TAGGCTGGGG | 0.998 ± 0.023
192 | TAGGCTTTAG | 1.01 ± 0.012
193 | TAGGGAAATC | 0.983 ± 0.013
194 | TAGGGATGGT | 0.979 ± 0.022
195 | TAGGGATGTA | 1.01 ± 0.016
196 | TAGGGCAACG | 1.04 ± 0.025
197 | TAGGGCACCC | 0.988 ± 0.058
198 | TAGGGCAGAG | 0.994 ± 0.021
199 | TAGGGCCAGC | 1.04 ± 0.033
200 | TAGGGCCCGG | 1.03 ± 0.077

From the supplement of paper PMC10126150
